Reference: patent publication US20240254229A1 (Molecular Partners, published 2024)

How the values were obtained:
[1] = molecular target: T1, hCD33 and hCD123 immobilized simultaneously on one switchSENSE chip (ratio 2:1, CD33:CD123) (human, UniProt P20138 18-259; P26951 19-305, limits assumed); assay: switchSENSE; KD,2 (avidity, simultaneous binding of CD33 and CD123)
T1 construct: Not a complex: two separate ligands on one surface; used for avidity values and for off-rates; also called both ligands; both targets attached to the surface of the chip
T1 sequence (P20138 18-259 limits assumed, one chain of several): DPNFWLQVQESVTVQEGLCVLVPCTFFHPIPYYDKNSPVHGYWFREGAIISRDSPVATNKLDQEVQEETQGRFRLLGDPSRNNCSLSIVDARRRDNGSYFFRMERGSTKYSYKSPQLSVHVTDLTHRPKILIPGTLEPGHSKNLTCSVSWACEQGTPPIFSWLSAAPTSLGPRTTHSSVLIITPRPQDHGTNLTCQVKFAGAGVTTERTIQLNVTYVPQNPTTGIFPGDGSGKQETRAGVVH
Method: (§1) The designed ankyrin repeat proteins: DARPin® protein #20, DARPin® protein #21, DARPin® protein #22, DARPin® protein #27, DARPin® protein #40 and DARPin® protein #41 were tested in a concentration of 0.16 and 64 nM (in a buffer PE140 containing 10 mM Na2HPO4/NaH2PO4, 140 mM NaCl, 0.05% Tween20, 50 μM EDTA, 50 μM EGTA) for binding against two ligands hCD33 and hCD123, which both were immobilized simultaneously to DNA nanolevers, on the surface, at a pre-defined ratio (2:1, CD33:CD123) and 10% density (100:50) on an ADP-48-1-0 chip, where 100% density 1000 receptors/μm2 (preincubated R1-B48-CD123 and G1-A48-CD33 (100 nM) diluted in cNL-48 (dark)). Briefly the following steps were performed: [0724] Conjugation. Amine coupling of the two ligands (CD33 and CD123) to the DNA nanolever (A48, B48, respectively) and purification of the conjugates using the proFIRE® solution (Dynamic Biosensors GmbH) at 25° C. [0725] Evaluation of all the combined affinity and avidity of all different proteins to both ligands attached on the surface of an ADP chip using a DRX+ instrument (dynamic BIOSENSORS). [0726] Statistical analysis (repeatability from 2 to 5 times) including regeneration of the chip surface every concentration analyzed and long dissociation times and data were fitted using a bi-exponential global fit.

[2] = molecular target: T2, extracellular domain of human CD70 (SEQ ID NO: 89), hCD70-Fc-trimer, ACRO Biosystems (human, UniProt P32970 52-193, chemically biotinylated where the biotinylated form was used); assay: SPR (ProteOn XPR36), target on GLC chip
T2 construct: also called human CD70-Fc-trimer; Bio.CD70
T2 sequence: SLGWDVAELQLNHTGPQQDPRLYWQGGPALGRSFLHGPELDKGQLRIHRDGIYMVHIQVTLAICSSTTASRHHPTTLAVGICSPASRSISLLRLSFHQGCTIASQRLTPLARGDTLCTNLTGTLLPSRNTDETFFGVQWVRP

human serum albumin = molecular target: T3, human serum albumin (human, UniProt P02768 25-609); assay: SPR (ProteOn XPR36), target on GLC chip
T3 construct: also called HSA; SA
T3 sequence (P02768 25-609 limits assumed): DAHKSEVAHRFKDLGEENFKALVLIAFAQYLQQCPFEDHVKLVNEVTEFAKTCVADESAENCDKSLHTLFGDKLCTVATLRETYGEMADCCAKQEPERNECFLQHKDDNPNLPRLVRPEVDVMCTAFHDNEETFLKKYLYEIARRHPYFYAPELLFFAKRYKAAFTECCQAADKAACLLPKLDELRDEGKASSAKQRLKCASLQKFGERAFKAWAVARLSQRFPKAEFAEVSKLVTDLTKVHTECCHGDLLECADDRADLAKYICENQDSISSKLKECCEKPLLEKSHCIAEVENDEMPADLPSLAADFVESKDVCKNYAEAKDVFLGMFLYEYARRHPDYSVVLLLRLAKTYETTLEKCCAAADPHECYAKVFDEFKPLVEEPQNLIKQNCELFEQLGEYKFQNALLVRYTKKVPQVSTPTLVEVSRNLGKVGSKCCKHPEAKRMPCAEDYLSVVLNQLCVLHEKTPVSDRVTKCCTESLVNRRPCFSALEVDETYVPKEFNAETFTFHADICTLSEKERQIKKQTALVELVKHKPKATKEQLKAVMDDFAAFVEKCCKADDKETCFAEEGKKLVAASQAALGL

[3] = molecular target: T4, hCD33 (recombinant, construct not stated) (human, UniProt P20138 18-259, limits assumed); assay: switchSENSE; KD,1 (affinity)
T4 construct: also called CD33 (Ligand 1)
T4 sequence (P20138 18-259 limits assumed): as the sequence (P20138 18-259 limits assumed, one chain of several) above
Method: as §1

[4] = molecular target: T5, hCD123 (recombinant, construct not stated) (human, UniProt P26951 19-305, limits assumed); assay: switchSENSE; KD,1 (affinity)
T5 construct: also called CD123 (Ligand 2)
T5 sequence (looked up): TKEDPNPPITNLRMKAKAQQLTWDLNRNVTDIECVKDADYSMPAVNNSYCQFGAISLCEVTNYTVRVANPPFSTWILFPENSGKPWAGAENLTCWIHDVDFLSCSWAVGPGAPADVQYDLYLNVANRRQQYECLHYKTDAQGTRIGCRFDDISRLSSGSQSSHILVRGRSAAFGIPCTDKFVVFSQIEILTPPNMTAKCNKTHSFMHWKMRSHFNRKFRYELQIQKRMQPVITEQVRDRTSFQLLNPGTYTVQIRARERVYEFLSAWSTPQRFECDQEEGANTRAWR
Method: as §1

[5] = molecular target: T5, hCD123 (recombinant, construct not …); assay: switchSENSE, hCD33 and hCD123 co-immobilised 2:1; panel headed CD123, column KD1 (affinity)
Method: as §1

B1: DARPin® protein #27 (designed binder)
chain: DLGKKLLEAALEGQLDEVRELLKAGADVNAKDQEGYTPLHLAAALGHLEIVEVLLKAGADVNAKDSIGRTPLHLAAYKGHLEIVEVLLKAGADVNAQDLLGETPADLAAEQGHQDIAEVLQKAAGSPTPTPTTPTPTPTTPTPTPTGSDLGVKLLLAASRGQLDEVRILLKAGADVNAKDIDEGYTPLHIAAYYGHLEIVEVLLKAGADVNAKDRYGKTPLHLAAISGHLEIVEVLLKAGADVNAQDDKGDTPADLAADYGHQDIAEVLQKAAGSPTPTPTTPTPTPTTPTPTPTGSDLGQKLLEAAWAGQDDEVRELLKAGADVNAKNSRGWTPLHTAAQTGHLEIFEVLLKAGADVNAKDDKGVTPLHLAAALGHLEIVEVLLKAGADVNAQDSWGTTPADLAAKYGHEDIAEVLQKAA
notes: CD123-CD33-CD3; also called αCD123-aCD33-αCD3_1; not shown: N-terminal His-tag
With B1 the Kd [1] was 0.2 to 0.3 nM, the binding result [2] was “no binding (tested: 100 nM (highest concentration))” and the binding result (human serum albumin) was “no binding (tested: 100 nM (highest concentration))”. It also gave a Kd [3] of ~20 nM, a Kd [4] of ~4.5 nM and a Kd [5] of 4.5 nM.
